Experimental data published in publication PMC3332082.

How the values were obtained:
[1] = molecular target: murine cdb3-GFP, substitution of residues 25-31 (negative residues introduced) (mouse) (UniProt P04919); assay: other fluorescence titration
[2] = molecular target: murine cdb3-GFP, substitution of residues 19-23 (acidic residues to amides) (mouse) (UniProt P04919); assay: FRET or BRET
[3] = molecular target: murine cdb3-GFP, deletion of residues 19-23 (mouse) (UniProt P04919); assay: FRET or BRET
[4] = molecular target: murine cdb3-GFP, substitution of residues 12-23 (all 7 acidic residues to amides) (mouse) (UniProt P04919); assay: FRET or BRET

murine hemoglobin (from erythrocytes of C57BL/6J mice) (from UniProt P01942 1-142; P02088 1-147) (complex)
Kd [1]: 390 nM | reduction in deoxyHb binding against wild type [2]: 60% | reduction in deoxyHb binding against wild type [3]: 60% | affinity for deoxyHb, percent of normal [4]: 15%
